# Laboratory results from patent US20240043542A1 (published 2024).
# Changes are numbered by the printed parent chain. Read-outs that look alike come from different tables or passages of the source.
# B1: B7-H4 antibody 15465 (antibody, human IgG1, kappa, V domains shown)
# VH: QVQLQESGPGLVKPSQTLSLTCTVSGGSISSGGYYWSWIRQHPGKGLEWIGNIYYSGSTYYNPSLKSRVTISVDTSKNQFSLKLSSVTAADTAVYYCARESSTISADFDLWGRGTLVTVSS
# VL: DIQMTQSPSSVSASVGDRVTITCRASQGISRWLAWYQQKPGKAPKLLIYAASSLQSGVPSRFSGSGSGTDFTLTISSLQPEDFATYYCQQAHTFPYTFGGGTKVEIKR
# notes: human IgG1/kappa
# B2: B7-H4 antibody 20506, afucosylated (antibody, human IgG1, kappa, V domains shown)
# VH: B1 VH with V2L, Q16E, V24A, S31H, I71M
# VL: B1 VL
# modifications: afucosylated Fc glycan (made in CHO-y cells)
# notes: human IgG1/kappa
# B3: B7-H4 antibody 15441 (antibody, human IgG1, kappa, V domains shown)
# VH: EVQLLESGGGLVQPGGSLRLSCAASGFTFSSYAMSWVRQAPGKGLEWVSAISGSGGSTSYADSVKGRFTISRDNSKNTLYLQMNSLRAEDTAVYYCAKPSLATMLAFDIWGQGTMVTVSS
# VL: DIQMTQSPSTLSASVGDRVTITCRASQSISSWLAWYQQKPGKAPKLLIYDASSLESGVPSRFSGSGSGTEFTLTISSLQPDDFATYYCQQSKSYPRTFGGGTKVEIKR
# notes: human IgG1/kappa
# B4: B7-H4 antibody 15503 (antibody, human IgG1, kappa, V domains shown)
# VH: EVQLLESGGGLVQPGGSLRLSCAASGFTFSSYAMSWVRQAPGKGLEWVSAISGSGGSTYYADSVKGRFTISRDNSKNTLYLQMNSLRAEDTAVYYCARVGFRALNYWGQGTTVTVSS
# VL: DIQLTQSPSSVSASVGDRVTITCRASQDISSWLAWYQQKPGKAPKLLIYAASSLQSGVPSRFSGSGSGTDFTLTISSLQPEDFATYYCQQATSYPPWTFGGGTKVEIKR
# notes: human IgG1/kappa
# B5: B7-H4 antibody 15461 (antibody, human IgG1, kappa, V domains shown)
# VH: QLQLQESGPGLVKPSETLSLTCTVSGGSISSSSYYWGWIRQPPGKGLEWIGNIYYSGSTYYNPSLKSRVTISVDTSKNQFSLKLSSVTAADTAVYYCAREGSYPNWFDPWGQGTLVTVSS
# VL: EIVMTQSPATLSVSPGERATLSCRASQSVSSNLAWYQQKPGQAPRLLIYGASTRATGIPARFSGSGSGTEFTLTISSLQSEDFAVYYCQQYHSFPFTFGGGTKVEIKR
# notes: human IgG1/kappa
# B6: B7-H4 antibody 15495 (antibody, human IgG1, kappa, V domains shown)
# VH: QVQLVQSGAEVKKPGSSVKVSCKASGGTFSSYAISWVRQAPGQGLEWMGGIIPIFGTASYAQKFQGRVTITADESTSTAYMELSSLRSEDTAVYYCARQQYDGRRYFGLWGRGTLVTVSS
# VL: B5 VL with G50S, Y91V, H92N, S93V, F94W, F96P
# notes: human IgG1/kappa
# B7: B7-H4 antibody 20502.1 (antibody, human IgG1, kappa, V domains shown)
# VH: B5 VH with S30K, S32G, W106Q, T114I
# VL: B5 VL
# notes: human IgG1/kappa
# Legend:
# [1] = target: T1, mouse B7-H4 on the cell surface (mouse, UniProt Q7TSP5 25-257); test: flow cytometry, 100 nM, transfected HEK293T
# T1 construct: full-length, on transfected HEK293T cells
# T1 sequence: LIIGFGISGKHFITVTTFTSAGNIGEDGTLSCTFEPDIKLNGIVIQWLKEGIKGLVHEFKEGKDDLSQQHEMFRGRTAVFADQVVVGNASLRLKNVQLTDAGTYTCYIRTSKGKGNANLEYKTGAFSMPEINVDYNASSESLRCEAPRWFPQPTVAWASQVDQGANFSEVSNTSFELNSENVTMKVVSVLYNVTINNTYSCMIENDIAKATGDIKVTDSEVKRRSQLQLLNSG
# Method: (§1) HEK293T cell lines were transfected to express full-length human, cynomolgus monkey, mouse, or rat B7-H4. In addition, the endogenous human B7-H4 expressing SK-BR-3 breast cancer cell line was used to assess the ability of the antibodies to bind B7-H4 expressed on the cell surface. 1×10⁵ parental HEK293T or transfected HEK293T cell lines were incubated with 100 nM of the B7-H4 antibodies. Following incubation, cells were pelleted, washed, and incubated with a secondary labeling antibody, and samples were acquired on a flow cytometer. Fold binding over the parental cell line (FOP) was calculated as follows: MFI transfected HKE293T cells/MFI parental HEK293T cells.
# [2] = target: T2, cynomolgus monkey B7-H4 on the cell surface (cynomolgus monkey, UniProt Q7Z7D3 25-282 (human entry)); test: flow cytometry, 100 nM, transfected HEK293T
# T2 construct: full-length, on transfected HEK293T cells
# T2 chain: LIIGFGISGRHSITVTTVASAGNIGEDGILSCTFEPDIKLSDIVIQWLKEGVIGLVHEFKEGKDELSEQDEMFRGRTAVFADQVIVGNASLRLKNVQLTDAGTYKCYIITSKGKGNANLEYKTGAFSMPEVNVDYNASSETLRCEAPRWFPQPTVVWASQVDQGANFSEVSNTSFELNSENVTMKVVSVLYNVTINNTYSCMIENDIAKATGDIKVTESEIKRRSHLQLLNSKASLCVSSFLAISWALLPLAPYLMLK
# Method: as §1
# [3] = target: T3, human B7-H4 on the cell surface (human, UniProt Q7Z7D3 25-282); test: flow cytometry, 100 nM, transfected HEK293T
# T3 construct: full-length human B7-H4 on transfected HEK293T cells or endogenous on SK-BR-3 cells; also called SK-BR-3 (endogenous human B7-H4)
# T3 sequence: T2 chain with I53L, L242F, A252S
# Method: as §1
# [4] = target: T3, human B7-H4 on the cell surface; test: cell-based or functional assay
# B7-H4 IgV-huIgG1 [5] = target: T4, B7-H4 IgV-huIgG1 (human); test: SPR, antibody captured by anti-human Fab, antigen in flow
# T4 construct: also called N-terminal domain of human B7-H4
# Method: (§2) Briefly, anti-human Fab antibody was immobilized on a carboxyl-derivatized SPR chip surface, and anti-B7-H4 antibodies were captured on the resulting surface at 5 ug/ml for 30 seconds.
# [6] = target: T5, recombinant human B7-H4-huIgG1 (human); test: BLI, antigen on Protein A tips;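 further: Anti-B7-H4 antibodies assessed for affinity toward the B7-H4 extracellular domain using biolayer interferometry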
# T5 construct: also called B7-H4-extracellular domain (ECD)
# Method: (§3) Binding affinities of anti-B7-H4 antibodies to B7-H4-extracellular domain (ECD) were determined by biolayer interferometry (BLI). […] Anti-B7-H4 antibodies were then evaluated for binding.
# [7] = target: T6, cynomolgus monkey B7-H4 (recombinant, BLI) (cynomolgus monkey, UniProt Q7Z7D3 25-259 (human entry)); test: BLI, antigen on Protein A tips;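 further: Anti-B7-H4 antibodies assessed for affinity toward the B7-H4 extracellular domain using biolayer interferometry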
# T6 construct: also called Cynomolgus B7-H4
# T6 sequence: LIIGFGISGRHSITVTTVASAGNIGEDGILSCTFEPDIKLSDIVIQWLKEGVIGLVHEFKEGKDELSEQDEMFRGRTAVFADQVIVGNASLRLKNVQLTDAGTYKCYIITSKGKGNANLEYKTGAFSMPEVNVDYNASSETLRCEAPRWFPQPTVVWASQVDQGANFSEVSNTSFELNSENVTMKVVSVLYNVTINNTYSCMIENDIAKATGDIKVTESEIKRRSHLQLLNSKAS
# Method: as §3
# [8] = target: T7, mouse B7-H4 (recombinant, BLI) (mouse, UniProt Q7TSP5 29-256, limits assumed); test: BLI, antigen on Protein A tips;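 further: Anti-B7-H4 antibodies assessed for affinity toward the B7-H4 extracellular domain using biolayer interferometry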
# T7 construct: also called murine B7-H4
# T7 sequence: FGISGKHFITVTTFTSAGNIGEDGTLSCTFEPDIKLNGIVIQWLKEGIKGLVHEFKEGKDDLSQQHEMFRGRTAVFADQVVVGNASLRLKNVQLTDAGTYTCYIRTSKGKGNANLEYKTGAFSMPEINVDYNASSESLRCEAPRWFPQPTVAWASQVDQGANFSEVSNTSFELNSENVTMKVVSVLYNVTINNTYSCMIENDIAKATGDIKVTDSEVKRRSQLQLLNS
# Method: as §3
# [9] = target: T3, human B7-H4 on the cell surface; test: flow cytometry, SK-BR-3 cells
# Method: (§4) Following incubation, cells were pelleted, washed and incubated with a secondary labeling antibody and samples were acquired on a flow cytometer. Data was analyzed using the FlowJo software and MFI was plotted vs. antibody concentration. The EC50 cell binding potency was calculated using nonlinear regression curve fit (GraphPad Prism).
# [10] = target: T8, rat B7-H4 on the cell surface (rat, UniProt Q501W4 25-257); test: flow cytometry, transfected 293 cells
# T8 construct: full-length, on transfected HEK293T cells
# T8 sequence: T1 sequence with R109H, Q228E
# Method: as §4
# [11] = target: T1, mouse B7-H4 on the cell surface; test: flow cytometry, transfected 293 cells
# Method: as §4
# [12] = target: T2, cynomolgus monkey B7-H4 on the cell …; test: flow cytometry, transfected 293 cells
# Method: as §4
# [13] = target: T3, human B7-H4 on the cell surface; test: flow cytometry, SK-BR-3 cells; remark: listed apart in the source
# Method: (§5) The fucosylated and afucosylated anti B7-H4 antibodies were also characterized by flow cytometry. In these experiments, HEK293T cell lines were transfected to express full-length cynomolgus monkey, mouse, or rat B7-H4. In addition, the endogenous human B7-H4 expressing SK-BR-3 breast cancer cell lines were used to assess the cell binding potency of B7-H4 antibodies. […] Following incubation, cells were pelleted, washed, incubated with a secondary labeling antibody, and run on a flow cytometer. Data were analyzed using the FlowJo software. MFI was plotted vs. antibody concentration, and the EC50 cell binding potency was calculated using nonlinear regression curve fit (GraphPad Prism).
# [14] = target: T1, mouse B7-H4 on the cell surface; test: flow cytometry, transfected 293 cells; remark: listed apart in the source
# Method: as §5
# [15] = target: T2, cynomolgus monkey B7-H4 on the cell …; test: flow cytometry, transfected 293 cells
# Method: as §5
# [16] = target: T3, human B7-H4 on the cell surface; test: cell-based or functional assay; remark: listed apart in the source
# [17] = target: T3, human B7-H4 on the cell surface; test: cell-based or functional assay; remark: listed apart in the source
# B7-H4 IgV-huIgG1 [18] = target: T4, B7-H4 IgV-huIgG1; test: SPR, protocol of Example 4
# Method: as §2
# [19] = target: T1, mouse B7-H4 on the cell surface; test: flow cytometry, transfected HEK293T
# [20] = target: T3, human B7-H4 on the cell surface; test: cell-based or functional assay; remark: listed apart in the source
Binder,FOP (fold binding over the parental cell line) [1] [fold],FOP (fold binding over the parental cell line) [2] [fold],FOP (fold binding over the parental cell line) [3] [fold],Kd [6] [nM],koff [6] [s⁻¹],kon [6] [M⁻¹ s⁻¹],Kd [7] [nM],koff [7] [s⁻¹],kon [7] [M⁻¹ s⁻¹],Kd [8] [nM],koff [8] [s⁻¹],kon [8] [M⁻¹ s⁻¹],EC50 [9] [nM],EC50 [10] [nM],EC50 [11] [nM],EC50 [12] [nM],binding result [8],binding result [19],also measured
B1,690,1320,626,51.3,0.0248,484000,51.1,0.0278,544000,89.6,0.0265,296000,2.13,1.47,5.34,4.9,–,–,Donor 1 Max IFNγ [4]: 230 pg/mL; Donor 2 Max IFNγ [4]: 134 pg/mL; Donor 3 Max IFNγ [4]: 1520 pg/mL; Donor 4 Max IFNγ [4]: 865 pg/mL; aAPC Assay EC50 (IFNγ production) [4]: 4310 nM; Kd (B7-H4 IgV-huIgG1 [5]): 17.3 nM; koff (B7-H4 IgV-huIgG1 [5]): 0.00417 s⁻¹; kon (B7-H4 IgV-huIgG1 [5]): 241000 M⁻¹ s⁻¹
B2,–,–,–,–,–,–,–,–,–,–,–,–,–,–,–,–,–,–,EC50 [13]: 0.767 nM; EC50 [14]: 1.77 nM; EC50 [15]: 1.77 nM; ADCC Assay EC50 (SK-BR-3 target cells) [16]: 0.0015 nM; aAPC Assay EC50 (IFNγ production) [17]: 1.05 nM; Kd (B7-H4 IgV-huIgG1 [18]): 2.01 nM; koff (B7-H4 IgV-huIgG1 [18]): 0.000725 s⁻¹; kon (B7-H4 IgV-huIgG1 [18]): 360000 M⁻¹ s⁻¹
B3,–,–,67,7.15,0.00872,1.22e+06,54.6,0.0727,1.33e+06,–,–,–,34.3,–,–,–,no binding,no binding (tested: FOP 10; 100 nM antibody),–
B4,–,877,289,10.4,0.0205,1.96e+06,6.32,0.0115,1.82e+06,–,–,–,–,–,–,–,no binding,no binding (tested: FOP 10; 100 nM antibody),–
B5,887,610,333,62.9,0.024,381000,62.1,0.027,434000,55.7,0.017,305000,5.66,1.67,6.37,6.77,–,–,Donor 1 Max IFNγ [4]: 312 pg/mL; Donor 2 Max IFNγ [4]: 165 pg/mL; Donor 3 Max IFNγ [4]: 1960 pg/mL; Donor 4 Max IFNγ [4]: 987 pg/mL; aAPC Assay EC50 (IFNγ production) [4]: 531 nM; Kd (B7-H4 IgV-huIgG1 [5]): 30.4 nM; koff (B7-H4 IgV-huIgG1 [5]): 0.00519 s⁻¹; kon (B7-H4 IgV-huIgG1 [5]): 171000 M⁻¹ s⁻¹
B6,–,524,619,9.44,0.0272,2.89e+06,5.17,0.0168,3.25e+06,–,–,–,61.2,–,–,–,no binding,no binding (tested: FOP 10; 100 nM antibody),–
B7,559,683,200,3.07,0.0015,487000,2.64,0.00139,528000,3.99,0.00207,520000,2.5,1.26,5.57,4.94,–,–,Donor 1 Max IFNγ [20]: 937 pg/mL; Donor 2 Max IFNγ [20]: 304 pg/mL; Donor 3 Max IFNγ [20]: 174 pg/mL; Donor 4 Max IFNγ [20]: 4270 pg/mL; aAPC Assay EC50 (IFNγ production) [20]: 0.79 nM
